This data set deals with the molecule itself. The data set is described as follows: cryo-EM structure.

For orientation: stoichiometry N means a count of units in the complex or per binding partner.

B1: human SEMA6A soluble recombinant extracellular domain (receptor)
chain: GFPEDSEPISISHGNYTKQYPVFVGHKPGRNTTQRHRLDIQMIMIMNGTLYIAARDHIYTVDIDTSHTEEIYCSKKLTWKSRQADVDTCRMKGKHKDECHNFIKVLLKKNDDALFVCGTNAFNPSCRNYKMDTLEPFGDEFSGMARCPYDAKHANVALFADGKLYSATVTDFLAIDAVIYRSLGESPTLRTVKHDSKWLKEPYFVQAVDYGDYIYFFFREIAVEYNTMGKVVFPRVAQVCKNDMGGSQRVLEKQWTSFLKARLNCSVPGDSHFYFNILQAVTDVIRINGRDVVLATFSTPYNSIPGSAVCAYDMLDIASVFTGRFKEQKSPDSTWTPVPDERVPKPRPGCCAGSSSLERYATSNEFPDDTLNFIKTHPLMDEAVPSIFNRPWFLRTMVRYRLTKIAVDTAAGPYQNHTVVFLGSEKGIILKFLARIGNSGFLNDSLFLEEMSVYNSEKCSYDGVEDKRIMGMQLDRASSSLYVAFSTCVIKVPLGRCERHGKCKKTCIASRDPYCGWIKEGGACSHLSPNSRLTFEQDIERGNTDGLGDCHNSFVALNGHSSSLLPSTTTSDSTAQEGYESRGGMLDWKHLLDSPDSTDPLGAVSSHNHQDKKGVIRESYLKGHDQLVPVT
notes: also called SEMA6A rECD; recombinant SEMA6A ectodomain
As to B1, the “stoichiometry N” value came to 2.

These data come from paper doi:10.1101/871707 (bioRxiv, 2019).
